“And” between values parts separate entries of the source, which are not always exact repeats. Equal entries are not always repeated. Numbered stars: 1 amine (or outer) side, 2 acyl side, 3 side chain; on linkers, the order of the positions; unused ones are H or OH. Bridge positions count the residues as written; N and C are the ends. Square brackets hold non-standard residues; d marks the D form. Peptide text beside a SMILES is read from it. Nle(6-ylidene) = O=C([C@H](CCCC=[*:3])N[*:1])[*:2]; Gly(cPent) = N[C@H](C(=O)O)C1CCCC1; tBuAla = CC(C)(C)C[C@H](N)C(=O)O; R5 = C=CCCC[C@@](C)(N)C(=O)O; S5 = C=CCCC[C@](C)(N)C(=O)O
Assays:
[1] = CD spectroscopy, percentage of helicity; assay type: physicochemical; details: CD at 222 nm, 10 mM phosphate buffer pH 7.5, 50 μM peptide, 25° C.
Procedure: The secondary structure of the peptides was then characterized by circular dichroism (DC) as described below.
The circular dichroism spectra were acquired on a Jasco J-810 and on a Chirascan spectropolarimeter. The samples were prepared in 10 mM phosphate buffer, pH 7.5, at a peptide concentration of 50 μM. Data were recorded at 25° C. by stepscan from 180 nm to 260 nm in a 0.1 cm pathlength quartz cell using 0.2 nm wavelength increments, 1 nm bandwidth and a response time of 0.5 sec. Each spectrum was an average of three measurements and was subtracted from buffer baseline. The data were converted to per residue molar ellipticity units [θ] (deg·cm2·dmol−1·residue−1) and smoothed using the Igor software. The percentage of helicity was calculated as it follows:
[formula] whereby CD222=molar ellipticity at 222 nm in [mdeg], N=number of amino acids in the peptide and C=peptide molar concentration [mol/l].

circular dichroism = details: 10 mM phosphate; pH 7.5; 25 °C; 50 uM

| Molecule | % helicity [1] | helicity (circular dichroism) |
| --- | --- | --- |
| EQSLAFIRKSDELLHNV (comparative peptide 3) [non-stapled native comparative peptide, reference compound] | 5.9% and 6.6% |  |
| Ac-FDASISQVNEKINQSLAFIRKSDELLHNVNAGKST-NH2 (N-terminus and C-terminus assumed) [Peptide T118, reference compound] | 23.4% |  |
| CC[C@H](C)[C@@H]1NC(=O)[C@H](Cc2ccccc2)NC(=O)[C@@](C)(NC(=O)[C@@H](NC(=O)[C@H](CO)NC(=O)[C@]2(C)CCCC=CCCC[C@@](C)(NC(=O)[C@H](CCC(=O)O)NC(C)=O)C(=O)N[C@@H]([C@@H](C)CC)C(=O)N[C@@H](CC(N)=O)C(=O)N2)C2CCCC2)CCCC=CCCC[C@@](C)(C(=O)N[C@@H](CO)C(=O)N[C@@H](CC(=O)O)C(=O)N[C@@H](CCC(=O)O)C(=O)N[C@@H](CC(C)C)C(=O)N[C@@H](CC(C)C)C(=O)N[C@@H](Cc2c[nH]cn2)C(=O)N[C@@H](CC(N)=O)C(=O)N[C@H](C(N)=O)C(C)C)NC(=O)[C@H](CCCNC(=N)N)NC1=O [Peptide 4ca-var2] (Ac-E[R5]IN[S5]S[Gly(cPent)][S5]FIR[S5]SDELLHNV-NH2; staple 2-5, 8-12) | 90.3% | 90.3% |
| CC[C@H](C)[C@@H]1NC(=O)[C@H](Cc2ccccc2)NC(=O)[C@@](C)(NC(=O)[C@H](CC(C)C)NC(=O)[C@H](CO)NC(=O)[C@]2(C)CCCC=CCCC[C@@](C)(NC(=O)[C@H](CCC(=O)O)NC(C)=O)C(=O)N[C@@H]([C@@H](C)CC)C(=O)N[C@@H](CC(N)=O)C(=O)N2)CCCC=CCCC[C@@](C)(C(=O)N[C@@H](CO)C(=O)N[C@@H](CC(=O)O)C(=O)N[C@@H](CCC(=O)O)C(=O)N[C@@H](CC(C)C)C(=O)N[C@@H](CC(C)C)C(=O)N[C@@H](Cc2c[nH]cn2)C(N)=O)NC(=O)[C@H](CCCNC(=N)N)NC1=O [Peptide 4ca18, E Xaa2 IN Xaa5 SL Xaa8 FIR Xaa12 SDELLH] (Ac-E[R5]IN[S5]SL[S5]FIR[S5]SDELLH-NH2; staple 2-5, 8-12) | 43% | 43% |
| CC[C@H](C)[C@@H]1NC(=O)[C@H](Cc2ccccc2)NC(=O)[C@@](C)(NC(=O)[C@H](CC(C)C)NC(=O)[C@H](CO)NC(=O)[C@]2(C)CCCC=CCCC[C@@](C)(NC(C)=O)C(=O)N[C@@H]([C@@H](C)CC)C(=O)N[C@@H](CC(N)=O)C(=O)N2)CCCC=CCCC[C@@](C)(C(=O)N[C@@H](CO)C(=O)N[C@@H](CC(=O)O)C(=O)N[C@@H](CCC(=O)O)C(=O)N[C@@H](CC(C)C)C(=O)N[C@@H](CC(C)C)C(N)=O)NC(=O)[C@H](CCCNC(=N)N)NC1=O [Peptide 4ca16, X498 IN X501 SL X504 FIR X508 SDELL] (Ac-[R5]IN[S5]SL[S5]FIR[S5]SDELL-NH2; staple 1-4, 7-11) | >100% |  |
| EKINQSL Xaa8 FIR Xaa12 SD Xaa15 LLH Xaa19 V (Ac-EKINQSL[(S)‑2‑(4-pentenyl)glycine]FIR[(S)‑2‑(4-pentenyl)glycine]SD[(S)‑2‑(4-pentenyl)glycine]LLH[(S)‑2‑(4-pentenyl)glycine]V-NH2; staple 8-12, 15-19 (inferred); not fully specified; printed as EKINQSL Xaa8 FIR Xaa12 SD Xaa15 LLH Xaa19 V) [Peptide 4a2, Xaa8, Xaa12, Xaa15 and Xaa19 are (S)-2-(4-pentenyl)glycine; Formula (C7)] | 46% |  |
| CC[C@H](C)[C@@H]1NC(=O)[C@H](Cc2ccccc2)NC(=O)[C@@](C)(NC(=O)[C@H](CC(C)C)NC(=O)[C@H](CO)NC(=O)[C@]2(C)CCCC=CCCC[C@@](C)(NC(=O)[C@H](CCC(=O)O)NC(C)=O)C(=O)N[C@@H]([C@@H](C)CC)C(=O)N[C@@H](CCCCN)C(=O)N2)CCCC=CCCC[C@@](C)(C(=O)N[C@@H](CO)C(=O)N[C@@H](CC(=O)O)C(=O)N[C@@H](CCC(=O)O)C(=O)N[C@@H](CC(C)(C)C)C(=O)N[C@@H](CC(C)C)C(=O)N[C@@H](Cc2c[nH]cn2)C(=O)N[C@@H](CC(N)=O)C(=O)N[C@H](C(N)=O)C(C)C)NC(=O)[C@H](CCCNC(=N)N)NC1=O [Peptide 4ca-var5, E Xaa2 IK Xaa5 SL Xaa8 FIR Xaa12 SDE Xaa16LHNV] (Ac-E[R5]IK[S5]SL[S5]FIR[S5]SDE[tBuAla]LHNV-NH2; staple 2-5, 8-12) | 82.3% | 82.3% |
| CC[C@H](C)[C@@H]1NC(=O)[C@H](Cc2ccccc2)NC(=O)[C@@](C)(NC(=O)[C@H](CC(C)C)NC(=O)[C@H](CO)NC(=O)[C@]2(C)CCCC=CCCC[C@@](C)(NC(=O)[C@H](CCC(=O)O)NC(C)=O)C(=O)N[C@@H]([C@@H](C)CC)C(=O)N[C@@H](CCCNC(=N)N)C(=O)N2)CCCC=CCCC[C@@](C)(C(=O)N[C@@H](CO)C(=O)N[C@@H](CC(=O)O)C(=O)N[C@@H](CCC(=O)O)C(=O)N[C@@H](CC(C)(C)C)C(=O)N[C@@H](CC(C)C)C(=O)N[C@@H](Cc2c[nH]cn2)C(=O)N[C@@H](CC(N)=O)C(=O)N[C@H](C(N)=O)C(C)C)NC(=O)[C@H](CCCNC(=N)N)NC1=O [Peptide 4ca-var6, E Xaa2 IR Xaa5 SL Xaa8 FIR Xaa12 SDE Xaa16LHNV] (Ac-E[R5]IR[S5]SL[S5]FIR[S5]SDE[tBuAla]LHNV-NH2; staple 2-5, 8-12) | 85.6% | 85.6% |
| EKA Xaa4 QSL Xaa8 FI Xaa11 KSD Xaa15 LLHNV (Ac-EKA[S5]QSL[S5]FI[S5]KSD[S5]LLHNV-NH2; staple 11-15, 4-8 (inferred)) [Peptide V4bb499] | 24% |  |
| EKI Xaa4 A SL Xaa8 FI Xaa11 KSD Xaa15 LLHNV (Ac-EKI[S5]ASL[S5]FI[S5]KSD[S5]LLHNV-NH2; staple 11-15, 4-8 (inferred)) [Peptide V4bb501] | 12% |  |
| EFPS X486 EFD X490 SI X493 QVN X497 KIN (EFPSXEFDXSIXQVNXKIN; not fully specified; (S)-2-(4-pentenyl)alanine residues, likely stapled; comparative peptide 1eg; (1)..(1) N-term acetylated; (5)..(5) (S)-2-(4-pentenyl)alanine; (9)..(9) (S)-2-(4-pentenyl)alanine; (12)..(12) (S)-2-(4-pentenyl)alanine; (16)..(16) (S)-2-(4-pentenyl)alanine; (19)..(19) C-term amidated) [comparative peptide; X486, X490, X493 and X497 are (S)-2-(4-pentenyl)alanine, reference compound] | 35.3% |  |
| CC[C@H](C)[C@H](NC(=O)[C@H](CCCCN)NC(=O)[C@H](CCC(=O)O)NC(C)=O)C(=O)N[C@@H](CC(N)=O)C(=O)N[C@@H](CCC(N)=O)C(=O)N[C@@H](CO)C(=O)N[C@@H](CC(C)C)C(=O)N[C@H]1CCCC=CCCC[C@@H](C(=O)N[C@@H](CO)C(=O)N[C@@H](CC(=O)O)C(=O)N[C@H]2CCCC=CCCC[C@@H](C(=O)N[C@H](C(N)=O)C(C)C)NC(=O)[C@H](Cc3c[nH]cn3)NC(=O)[C@H](CC(C)C)NC(=O)[C@H](CC(C)C)NC2=O)NC(=O)[C@H](CCCNC(=N)N)NC(=O)[C@H]([C@@H](C)CC)NC(=O)[C@H](Cc2ccccc2)NC1=O (Ac-EKINQSL[Nle(6-ylidene)]FIR[Nle(6-ylidene)]SD[Nle(6-ylidene)]LLH[Nle(6-ylidene)]V-NH2; staple 8-12, 15-19) |  | 46% |
| EKI Xaa4 Q A L Xaa8 FI Xaa11 KSD Xaa15 LLHNV (Ac-EKI[S5]QAL[S5]FI[S5]KSD[S5]LLHNV-NH2; staple 11-15, 4-8 (inferred)) [Peptide V4bb502] | 15% |  |
